The Human Domainome abundance scans (Beltran et al. 2025)

B1: Gamma-crystallin D, residues 90 to 170; numbered along this chain, P07320 (parent)
chain: IRLYEREDYRGQMIEFTEDCSCLQDRFRFNEIHSLNVLEGSWVLYELSNYRGRQYLLMPGDYRRYQDWGATNARVGSLRRV

Variants of: B1
Assay: abundance fitness (aPCA) (normalised: wild type 0, dead -1); higher = more abundant; growth selection in yeast, the domain comes from the species named
Conditions: Homo sapiens

Abundance fitness of substitutions, site by site:
E5: C -0.179; D -0.013; F 0.002; G -0.025; H -0.176; I 0.079; K 0.112; M 0.051; N -0.096; P 0.027; Q -0.013; R 0.023; S 0.046; T -0.146; V 0.053; W 0.154; Y 0.167
R6: A 0.044; C 0.069; D -0.172; E -0.018; F -0.262; G -0.011; H -0.124; I -0.047; K -0.027; L 0.012; M -0.042; N 0.153; P -1.02; Q -0.066; S -0.01; T 0.005; V -0.035; Y -0.092
E7: A 0.001; C -0.333; F -0.148; G -0.095; I -0.107; K 0.103; L -0.031; M -0.029; Q -0.016; R -0.043; S 0.069; V -0.04; W 0.045; Y -0.498
D8: A -0.079; C 0.05; E 0.015; F 0.085; G -0.004; H -0.086; I -0.152; K 0.111; L 0.025; M -0.006; N -0.342; P 0.026; Q 0.097; R 0.025; S -0.03; T -0.016; V -0.049; W -0.153
Y9: C 0.194; D -0.076; E 0.082; F 0.104; G 0.06; H 0.19; I 0.112; K 0.001; M 0.064; N 0.217; P -0.529; Q 0.07; R 0.204; S 0.175; T 0.179; V -0.396; W 0.036
R10: A -0.093; C 0.046; D -0.118; E 0.059; F 0.025; G -0.004; I 0.074; K 0.226; L -0.064; M -0.026; N 0.077; P -1.07; Q -0.069; S -0.138; T -0.034; V -0.005; W -0.027; Y -0.087
G11: A 0.035; N -0.094; P -0.521; S -0.1; W -1.01
Q12: A -0.055; C -0.352; D -0.019; E -0.105; F -0.192; G 0.04; H 0.021; I -0.061; K 0.052; L -0.173; M 0.062; N 0.102; P 0; S -0.008; T -0.041; V 0.1; W -0.176; Y 0.007
M13: A 0.08; C -0.176; D 0.034; E -0.056; F 0.009; G 0.017; H 0.001; I -0.021; L 0.002; N -0.042; Q -0.115; R -0.075; S 0.061; T -0.122; V 0.04; W -0.127; Y -0.524
I14: A -0.401; C -0.004; D 0.08; F 0.019; G -0.092; K -0.092; L -0.106; M 0.086; N 0.056; P -0.825; S 0.107; T -0.018; V -0.001; W -0.09; Y -0.018
E15: A -0.065; C 0.008; D -0.166; F 0.015; G -0.08; I -0.034; K 0.204; L -0.032; M -0.013; N 0.206
